{
  "source": "patent US20180327506A1",
  "binders": {"B1": {"name": "SC93.216 (antibody, IgG1, V domains shown)", "VH": "EVQLVESGGGLVKPGGSLKLSCAASGFTFSSYGMSWVRQTPEKRLEWVAAIHSNGDITYYPDTVKGRFTISRDNAKNTLYLQMSSLTSEDTALYYCANLAYWGQGTLVTVSA", "VL": "EIQMTQSPSSMSASLGDRITITCQATQDIVKNLNWYQQKPGKSPSSLIYYATELAEGVPSRFSGSGSGSDYSLTISNLESEDFADYYCLQFYEFPLTFGAGTKLELK"}, "B2": {"name": "SC93.15 (antibody, IgG1, V domains shown)", "VH": "EVQLQQSGPELVKPGASVKISCKGSGYTFTDYFMNWVKLSHGKSLEWIGEINPNNGGTNYNQKFKGKATLTVDKSSSIAYMELRSLTSEDSAVYYCARPGTNYWGPGTTLTVSS", "VL": "DIVMTQSHKFMSTSVGDRVSITCKASQNVGTSVAWYQQKPGHSPKLLIYWASTRHTGVPDRFTGSGSGTDFSLTISSVQSEDLTDYFCQQYSSYPLTFGGGTKLEIK"}},
  "key": {"[1]": {"molecular_target": "full-length mature cynomolgus EMR2 (residues Q24-N816) with N-terminal aspartic acid/lysine epitope tag, overexpressed on HEK293T cells (cynomolgus monkey (Macaca fascicularis))", "sequence (chain, as listed by the source)": "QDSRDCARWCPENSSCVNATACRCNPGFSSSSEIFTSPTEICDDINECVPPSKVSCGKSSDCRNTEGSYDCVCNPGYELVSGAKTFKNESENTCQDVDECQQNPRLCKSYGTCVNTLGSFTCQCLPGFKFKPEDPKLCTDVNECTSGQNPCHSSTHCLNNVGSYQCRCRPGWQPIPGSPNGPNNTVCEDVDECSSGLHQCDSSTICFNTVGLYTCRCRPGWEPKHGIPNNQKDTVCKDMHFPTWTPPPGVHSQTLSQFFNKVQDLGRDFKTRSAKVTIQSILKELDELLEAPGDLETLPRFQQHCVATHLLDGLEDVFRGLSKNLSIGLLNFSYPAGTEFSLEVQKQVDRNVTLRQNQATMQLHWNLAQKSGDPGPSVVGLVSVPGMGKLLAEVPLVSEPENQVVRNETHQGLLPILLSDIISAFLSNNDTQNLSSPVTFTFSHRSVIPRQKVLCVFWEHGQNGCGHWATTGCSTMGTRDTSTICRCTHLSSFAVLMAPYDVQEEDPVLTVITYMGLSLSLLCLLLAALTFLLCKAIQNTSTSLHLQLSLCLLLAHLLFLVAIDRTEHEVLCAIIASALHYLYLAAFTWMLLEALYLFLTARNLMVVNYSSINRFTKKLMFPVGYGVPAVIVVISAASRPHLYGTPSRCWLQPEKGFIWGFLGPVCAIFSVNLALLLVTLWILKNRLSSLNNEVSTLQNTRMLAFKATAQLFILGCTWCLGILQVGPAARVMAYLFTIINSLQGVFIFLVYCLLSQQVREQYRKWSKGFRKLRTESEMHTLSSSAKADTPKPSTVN"}, "[2]": {"molecular_target": "full-length mature cynomolgus EMR2 (residues Q24-N816) with N-terminal aspartic acid/lysine epitope tag, overexpressed on HEK293T cells (cynomolgus monkey (Macaca fascicularis))", "assay": "flow cytometry on transduced HEK293T; 293 naive MFI 96.8"}, "[3]": {"molecular_target": "full-length mature cynomolgus EMR2 (residues Q24-N816) with N-terminal aspartic acid/lysine epitope tag, overexpressed on HEK293T cells (cynomolgus monkey (Macaca fascicularis))", "assay": "flow cytometry on transduced HEK293T; 293 naive MFI ND"}},
  "data": [
    {"binder": "B1", "values": [
      {"measurement": "% live, FAB-saporin killing assay", "setting": "[1]", "value": 105, "unit": "%"},
      {"measurement": "FC MFI", "setting": "[2]", "value": 220}
    ]},
    {"binder": "B2", "values": [
      {"measurement": "% live, FAB-saporin killing assay", "setting": "[1]", "value": 101, "unit": "%"},
      {"measurement": "FC MFI", "setting": "[3]", "value": 41.2}
    ]}
  ]
}
